According to US20110091386A1 (GENE TECHNO SCIENCE, published 2011):
Blank lines part the entries; values can stand above or below the binder they belong to.

Assays:
[1] = target: T1, peptide CGRGDS (human and murine, N-terminal Cys coupled to BSA via EMCS); test: ELISA, BSA-coupled peptide coated at 10 ug/ml
T1 construct: Synthetic peptide, BSA conjugate on the ELISA plate
T1 peptide: CGRGDS
Source text: (§1) Peptides of amino acid sequence of […] (mOPN1) (SEQ ID NO:73), […] (mOPN5) (SEQ ID NO:71), […] (SEQ ID NO:74), CPNGRGD (SEQ ID NO:75), […] (SEQ ID NO: 76) […] (SEQ ID NO: 77), […] (SEQ ID NO:78) and […] (SEQ ID NO:72) which include murine OPN derived partial peptide, a peptide of amino acid sequence […] (SEQ ID NO:79) and […] (SEQ ID NO:80) which include human OPN derived partial peptide, and a peptide of amino acid sequence CGRGDS (SEQ ID NO:81) which include common peptide sequence of human OPN and murine OPN were coupled to BSA (Sigma corporation) via EMCS (Dojin) and used for ELISA.
(§2) A 96 well plate was immobilized with peptides (10 μg/ml) or proteins (5 μg/ml) by cultivating at 37° C. for an hour, blocked with 0.1% BSA/PBS/0.05% NaN₃ solution, and then reacted with various concentrations of antibodies at 37° C. for an hour. Next, the plate was reacted with HRP labeled anti-murine IgG antibody (Jackson ImmunoResearch Laboratories, Inc.) as secondary antibody at 37° C. for 30 minutes, added OPD as chromogen, added 1N H₂SO₄ to stop the reaction, and then detected absorbance at 490 nm.

[2] = target: T2, peptide CVDVPNGRGDS (murine, N-terminal Cys coupled to BSA via EMCS); test: ELISA, BSA-coupled peptide coated at 10 ug/ml
T2 construct: Synthetic peptide, BSA conjugate on the ELISA plate
T2 peptide: CVDVPNGRGDS
Source text: as §1, §2

[3] = target: T3, peptide CPNGRGD (murine, N-terminal Cys coupled to BSA via EMCS); test: ELISA, BSA-coupled peptide coated at 10 ug/ml
T3 construct: Synthetic peptide, BSA conjugate on the ELISA plate
T3 peptide: CPNGRGD
Source text: as §1, §2

[4] = target: T4, human osteopontin (human, UniProt P10451 17-314); test: ELISA, protein coated at 5 ug/ml, HRP anti-murine IgG, A490
T4 construct: mature; Secreted recombinant protein; also called hOPN; human OPN
Protocol: as §2, with “Binding ability of the monoclonal antibodies 33E10 and 35B6 to ECM proteins was detected by ELISA using 96 well plate immobilized with hOPN, mOPN, FN, VN or laminin obtained above. A 96” for “A 96”

[5] = target: T5, murine osteopontin (murine, UniProt P10923 17-294); test: as above
T5 construct: mature; Secreted recombinant protein; also called mOPN; murine OPN
Protocol: as §2, with “Binding ability of the monoclonal antibodies 33E10 and 35B6 to ECM proteins was detected by ELISA using 96 well plate immobilized with hOPN, mOPN, FN, VN or laminin obtained above. A 96” for “A 96”

[6] = target: T6, hOPN5 peptide CVDTYDGRGDSVVYGLRS conjugated to bovine serum albumin (human, N-terminal Cys coupled to BSA (via EMCS in section 6.2)); test: ELISA, BSA-coupled peptide coated at 10 ug/ml, HRP anti-murine IgG, A490
T6 construct: also called hOPN5-BSA; hOPN-BSA
T6 peptide: CVDTYDGRGDSVVYGLRS

[7] = target: T7, peptide CGRGDSLAYGLR (murine, N-terminal Cys coupled to BSA via EMCS); test: as above
T7 construct: Synthetic peptide, BSA conjugate on the ELISA plate
T7 peptide: CGRGDSLAYGLR

[8] = target: T8, peptide CGDSLAYG (murine, N-terminal Cys coupled to BSA via EMCS); test: as above
T8 construct: Synthetic peptide, BSA conjugate on the ELISA plate
T8 peptide: CGDSLAYG

[9] = target: T9, peptide CGDSLAYGLR (murine, N-terminal Cys coupled to BSA via EMCS); test: as above
T9 peptide: CGDSLAYGLR

[10] = target: T10, mOPN5 peptide CVDVPNGRGDSLAYGLR (murine, N-terminal Cys coupled to BSA via EMCS (ELISA of section 6.2)); test: as above
T10 construct: BSA conjugate in section 6.2; 'antigen peptide solid phase' in the hybridoma screen of section 6.1; also called antigen peptide
T10 peptide: CVDVPNGRGDSLAYGLR

[11] = target: T6, hOPN5 peptide CVDTYDGRGDSVVYGLRS …; test: ELISA, hOPN5-BSA coated at 1 ug/ml, HRP anti-human gamma chain, A405
Protocol: The affinity of humanized 35B6 IgG1/κ was compared to that of chimeric 35B6 IgG1/κ by ELISA. As an antigen, synthetic oligopeptide ([…] (SEQ ID NO:79) conjugated to bovine serum albumin (hOPN5-BSA) was used. In a typical experiment, an ELISA plate was coated with 100 μl/well of 1 μg/ml hOPN-BSA in PBS overnight at 4° C., washed with Wash Buffer, and blocked with 300 μl/well of Blocking Buffer for 1 hr at room temperature. After washing with Wash Buffer, 100 μl/well of samples appropriately diluted in ELISA Buffer were applied to the ELISA plate. After incubating the ELISA plate overnight at 4° C. and washing with Wash Buffer, bound antibodies were detected using 100 μl/well of 1/2,000-diluted HRP-conjugated goat anti-human γ chain polyclonal antibody (SouthernBiotech). After incubating for 1 hr at room temperature and washing with Wash Buffer, color development was performed by adding 100 μl/well of ABTS substrate and stopped with 100 μl/well of 2% oxalic acid. Absorbance was read at 405 nm. As shown in FIG. 41A-41B, the binding of humanized 35B6 IgG1/κ to hOPN5-BSA was similar to (FIG. 41A) or indistinguishable from (FIG. 41B) that of chimeric 35B6 IgG1/κ.

[12] = target: T11, peptide CSLAYGLR (murine, N-terminal Cys coupled to BSA via EMCS); test: ELISA, BSA-coupled peptide coated at 10 ug/ml
T11 construct: Synthetic peptide, BSA conjugate on the ELISA plate
T11 peptide: CSLAYGLR
Source text: as §1, §2

[13] = target: T12, peptide CSVVYGLR (human, N-terminal Cys coupled to BSA via EMCS); test: ELISA, BSA-coupled peptide coated at 10 ug/ml
T12 construct: Synthetic peptide, BSA conjugate on the ELISA plate
T12 peptide: CSVVYGLR
Source text: as §1, §2

[14] = target: T13, human vitronectin (human, UniProt P04004 20-478); test: ELISA, protein coated at 5 ug/ml, HRP anti-murine IgG, A490
T13 construct: Bought protein; also called VN
Protocol: as §2, with “Binding ability of the monoclonal antibodies 33E10 and 35B6 to ECM proteins was detected by ELISA using 96 well plate immobilized with hOPN, mOPN, FN, VN or laminin obtained above. A 96” for “A 96”

[15] = target: T1, peptide CGRGDS; test: ELISA, BSA-coupled peptide coated at 10 ug/ml, HRP anti-murine IgG, A490
[16] = target: T2, peptide CVDVPNGRGDS; test: as above
[17] = target: T3, peptide CPNGRGD; test: as above

T4 sequence (P10451 17-314): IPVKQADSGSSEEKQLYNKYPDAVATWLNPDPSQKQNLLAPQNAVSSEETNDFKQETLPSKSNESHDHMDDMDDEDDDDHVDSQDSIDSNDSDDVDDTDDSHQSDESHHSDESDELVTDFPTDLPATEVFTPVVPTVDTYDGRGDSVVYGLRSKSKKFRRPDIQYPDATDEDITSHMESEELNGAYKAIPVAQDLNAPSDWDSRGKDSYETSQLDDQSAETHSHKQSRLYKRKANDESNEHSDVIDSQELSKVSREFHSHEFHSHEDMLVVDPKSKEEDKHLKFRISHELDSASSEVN
T5 sequence (P10923 17-294): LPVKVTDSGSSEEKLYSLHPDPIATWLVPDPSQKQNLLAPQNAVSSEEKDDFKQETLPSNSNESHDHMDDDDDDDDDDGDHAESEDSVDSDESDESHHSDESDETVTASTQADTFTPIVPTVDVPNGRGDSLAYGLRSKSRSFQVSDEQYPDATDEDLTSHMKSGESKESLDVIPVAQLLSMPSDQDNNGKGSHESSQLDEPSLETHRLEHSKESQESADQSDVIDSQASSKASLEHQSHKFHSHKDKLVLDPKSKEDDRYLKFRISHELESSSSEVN
T13 sequence (P04004 20-478 limits assumed): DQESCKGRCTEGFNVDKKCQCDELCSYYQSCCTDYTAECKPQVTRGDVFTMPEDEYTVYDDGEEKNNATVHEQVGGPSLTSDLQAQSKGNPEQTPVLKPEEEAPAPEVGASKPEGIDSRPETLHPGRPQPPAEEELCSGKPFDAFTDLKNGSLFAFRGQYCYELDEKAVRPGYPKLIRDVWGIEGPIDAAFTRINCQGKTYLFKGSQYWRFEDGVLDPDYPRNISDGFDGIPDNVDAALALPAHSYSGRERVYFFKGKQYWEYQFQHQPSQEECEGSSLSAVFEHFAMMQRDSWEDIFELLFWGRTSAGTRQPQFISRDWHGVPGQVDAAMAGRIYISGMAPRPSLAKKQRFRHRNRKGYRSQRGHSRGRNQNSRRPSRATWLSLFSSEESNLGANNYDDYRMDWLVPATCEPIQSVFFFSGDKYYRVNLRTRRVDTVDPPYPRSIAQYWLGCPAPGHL

binding result [1]: no binding
binding result [2]: no binding
binding result [3]: no binding
binding result [4]: binds
binding result [5]: binds
binding result [6]: binds
binding result [7]: binds
binding result [8]: binds
binding result [9]: binds
binding result [10]: binds
B1: mouse anti-RGD monoclonal antibody 35B6 (FERM BP-10441) (antibody, mouse IgG1, V domains shown)
VH: QVQLQQPGTELVKPGASVKLSCKASGYTFTNYWMHWVKQRPGQGLEWIGNINPRNGDSNYNEKFRSKASLTVDKSSSTVYMQLSSLTSEDSAVYYCARGYFDVWGTGTTVTVSS
VL: DIKMTQSPSSMYASLGERVSITCKASQDINSYLSWFQQKSGKSPKTLIYRANRLVDGVPSRFSGSGSGQDFSLTISSLEYEDMGIYYCLQYDEFPFTFGSGTKLEIK
notes: Mouse IgG1 from hybridoma

binding result [11]: binds
B2: chimeric 35B6 IgG1/kappa antibody (antibody, V domains shown)
VH: QVQLQQPGTELVKPGASVKLSCKASGYTFTNYWMHWVKQRPGQGLEWIGNINPRNGDSNYNEKFRSKASLTVDKSSSTVYMQLSSLTSEDSAVYYCARGYFDVWGTGTTVTVSS
VL: DIKMTQSPSSMYASLGERVSITCKASQDINSYLSWFQQKSGKSPKTLIYRANRLVDGVPSRFSGSGSGQDFSLTISSLEYEDMGIYYCLQYDEFPFTFGSGTKLEIK
notes: Tested as culture supernatant of transiently transfected HEK293 cells; also called Ch35B6

binding result [11]: binds
B3: humanized 35B6 IgG1/kappa antibody (antibody, V domains shown)
VH: QVQLVQSGAEVKKPGASVKVSCKASGYTFTNYWMHWVRQAPGQGLEWIGNINPRNGDSNYNEKFRSKASLTVDKSTSTVYMELSSLRSEDTAVYYCARGYFDVWGQGTTVTVSS
VL: DIQMTQSPSSLSASVGDRVTITCKASQDINSYLSWFQQKPGKAPKTLIYRANRLVDGVPSKFSGSGSGQDFTLTISSLQPEDFATYYCLQYDEFPFTFGQGTKLEIK
notes: Tested as culture supernatant of transiently transfected HEK293 cells; also called Hu35B6

binding result [12]: no binding
binding result [13]: no binding
binding result [4]: binds
binding result [5]: binds
binding result [14]: binds
binding result [6]: binds
binding result [15]: binds
binding result [16]: binds
binding result [17]: binds
binding result [10]: binds
B4: mouse anti-RGD monoclonal antibody 33E10 (FERM BP-10440) (antibody, mouse IgG1, V domains shown)
VH: EVKLVESGGGLVQPGGSLSLSCAASGFTFTDYYMIWVRQPPGKALEWLGFIRNKANGYTTEYSASVKGRFTISRDNSQSILYLQMNALRAEDSATYYCARGAYWGQGTLVTVSA
VL: DVLMTQTPLSLPVSLGDQASISCRSSQSIVHSNGNTYLEWYLQKPGQSPKLLIYRVSNRFSGVPDRFSGSGSGTDFTLKISRVEAEDLGVYYCFQGSFVPWTFGGGTKLEIK
notes: Mouse IgG1 from hybridoma, purified on an antigen peptide column
